The values below come from the supplement of paper PMC9170038.

This data set deals with K4 kissing-loop RNA reporter. Kind of data set: apparent KD of K4 kissing-loop reporter; higher = weaker reporter binding. The conditions noted are these: Eterna round: R107. The method, then: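 RNA-MaP round R107: designed RNA switches with theophylline, tryptophan, arginine or FMN aptamers are transcribed on-chip within common flanks. They are titrated with a labelled K4 kissing-loop RNA reporter in RNA-MaP buffer (100 mM Tris pH 7.5, 80 mM KCl, 4 mM MgCl2), without ligand or with the indicated ligand. Median apparent KD per design.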

Setting [1] is: input ligand: theophylline 20 uM.
The mark [2] stands for this setting: input ligand: tryptophan 2.4 mM.
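Further: bound reporter read as fluorescence of individual clusters on recovered sequencing chips by microscopy, with normalized cluster intensities fitted with a binding model.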

As for “AAAGAAGUAUACUUCAAGAGGUAUGCUGAUACCAGAGUCAAUUGACUCCCUUGGCAGCGGAUCGAGUGAUGUUCGUAACCUCAAA [AK3 SS Theophylline A]”, the “apparent KD of K4 kissing-loop reporter” value turned out to be 118 nM (input ligand: FMN 200 uM); 178 nM (input ligand: arginine 13.2 mM); 153 nM (input ligand: none); 192 nM under setting [1]; 117 nM under setting [2].

With “UCGCUCGAGUAAGGAUAUCAAUAUCAAAGGUCGUAGUGAUGUUAUACCAGGCCAAUUUGGCGGUAGUGAGAAGGUACUAGCAGUU [theeternabot_sameState_KL_FMN_B_38]”, the “apparent KD of K4 kissing-loop reporter” value is 1090 nM (input ligand: FMN 200 uM); 294 nM (input ligand: arginine 13.2 mM); 688 nM (input ligand: none); 461 nM under setting [1]; 405 nM under setting [2].

Consider “CGCAGUGAUGUUGCUAUUGUUCUUGGUUAACGAGGACCGGUACGGCCGCCACUCGAUGUCUGUCUAGUCCAGUGUUUUUUUGAGU [whbob_EX_Tryp_A_t9]”, for which the “apparent KD of K4 kissing-loop reporter” value reads like this: (input ligand: FMN 200 uM) 513 nM; (input ligand: arginine 13.2 mM) 493 nM; (input ligand: none) 592 nM; under setting [1], 571 nM; under setting [2], 310 nM.

For the sequence “UCGAACGAUGGAAGGAGCGCUCGUCAGUCCUGCGAGUGAUGUUCGUGGGUAAAUAGUCGCGAGCAGGUAGGUCGCCAUCUUGAGC [Indiermaar]”, the “apparent KD of K4 kissing-loop reporter” value (input ligand: FMN 200 uM) was determined as 130 nM; the “apparent KD of K4 kissing-loop reporter” value (input ligand: arginine 13.2 mM) was 120 nM; the “apparent KD of K4 kissing-loop reporter” value (input ligand: none) was found to be 131 nM; the “apparent KD of K4 kissing-loop reporter” value under setting [1] came to 128 nM; the “apparent KD of K4 kissing-loop reporter” value under setting [2] was 125 nM.

Take “GUACCUUGGAAACAAGGACCGCUAACCGAAGGAGCGCGUGAAAACGCAGGUAGGUCGCGGUAGCGGAGUGAUGUUCCGCGAGAGG [Excluson Arginine A GF 14]”: the “apparent KD of K4 kissing-loop reporter” value (input ligand: FMN 200 uM) came to 166 nM; the “apparent KD of K4 kissing-loop reporter” value (input ligand: arginine 13.2 mM) is 235 nM; the “apparent KD of K4 kissing-loop reporter” value (input ligand: none) stood at 196 nM; the “apparent KD of K4 kissing-loop reporter” value under setting [1] was determined as 268 nM; the “apparent KD of K4 kissing-loop reporter” value under setting [2] worked out at 165 nM.

“GUUACGCAUGGAAGGAGCGCAGGCUCAACAAGUAGCUCAGUGAUGUUGAGCAUAUUAAUUCUGCAGGUAGGUCGCCAUGUGUAAC [Ex Arginine B K4 26]”: the “apparent KD of K4 kissing-loop reporter” value is 787 nM (input ligand: FMN 200 uM); 471 nM (input ligand: arginine 13.2 mM); 612 nM (input ligand: none); 802 nM under setting [1]; 646 nM under setting [2].

For “AGUGAUGUUUUUUUUAAGAGUGAUGUUUUUCGAGGACCGGUACGGCCGCCACUCGAGUGAUGAGUGCGGUGUUGUGAUGUUUAGU [ewmullin]”, the “apparent KD of K4 kissing-loop reporter” value (input ligand: FMN 200 uM) is 606 nM; the “apparent KD of K4 kissing-loop reporter” value (input ligand: arginine 13.2 mM) was 402 nM; the “apparent KD of K4 kissing-loop reporter” value (input ligand: none) stood at 530 nM; the “apparent KD of K4 kissing-loop reporter” value under setting [1] came to 475 nM; the “apparent KD of K4 kissing-loop reporter” value under setting [2] stood at 467 nM.

As for “UUUGCAAAGUCGGCCGCCACUCCGGGCCCUAUAAAUGGGCGCAGUGAUGUUGCGGCUAGGCCUCUGAGGACCGGGACUUUGUAAA [Inusleve]”, the “apparent KD of K4 kissing-loop reporter” value runs as follows: (input ligand: FMN 200 uM) 151 nM; (input ligand: arginine 13.2 mM) 52.1 nM; (input ligand: none) 52.3 nM; under setting [1], 77.2 nM; under setting [2], 179 nM.

As to “GGAGUUACCUGGGAUACCAGCCGGAGGCCCAGAGCUCGGAGUGAUGUUCUGGGAUGUUUCGGCCCUUGGCAGCUCUGGGUCUCCC [#2 Exclusion - Theophylline B Attempt #6 (HarryS)]”, the “apparent KD of K4 kissing-loop reporter” value runs as follows: (input ligand: FMN 200 uM) 1520 nM; (input ligand: arginine 13.2 mM) 512 nM; (input ligand: none) 535 nM; under setting [1], 505 nM; under setting [2], 521 nM.

Take “GCCGUAGAUUGAAGGAGCGGUAUGGGCGUUGGCUGAGUGAUGUUCAGGAAAAGUGGCUUCUACCAGGUAGGUCGCAAUCUACGGC”: the “apparent KD of K4 kissing-loop reporter” value (input ligand: FMN 200 uM) was found to be 133 nM; the “apparent KD of K4 kissing-loop reporter” value (input ligand: arginine 13.2 mM) turned out to be 110 nM; the “apparent KD of K4 kissing-loop reporter” value (input ligand: none) was found to be 130 nM; the “apparent KD of K4 kissing-loop reporter” value under setting [1] was 139 nM; the “apparent KD of K4 kissing-loop reporter” value under setting [2] stood at 109 nM.

“UCUGCUGUAUAUGAUACCAGCAGUGAGAGACCAGAAGUAUAGUGAUGUUAUAUGAGAGAAUGCCCUUGGCAGCGUGUGCGGGUGG [SSTheophylB.Z]”: the “apparent KD of K4 kissing-loop reporter” value was 85.4 nM (input ligand: FMN 200 uM); 87.6 nM (input ligand: arginine 13.2 mM); 67.5 nM (input ligand: none); 84.7 nM under setting [1]; 61.6 nM under setting [2].

Regarding “GGUGCUGUCUGUGCCGCCCUCCUCGUUCCUCGAGGACCGGUACGGCCGCCACUCGAGUGAUGUUCGGGUAGCGAUCCCUGCUAGC [Bdazzled - #17 Exc. Tryptophan A]”, the “apparent KD of K4 kissing-loop reporter” value is, setting by setting: (input ligand: FMN 200 uM) 221 nM; (input ligand: arginine 13.2 mM) 176 nM; (input ligand: none) 207 nM; under setting [1], 191 nM; under setting [2], 204 nM.

As for “AACUCUCAGACACUUGAGUGAUGUUCGGGCCGAGGACCGGUACGGCCGCCACUCGGGUCUGAGAGAGGUUAUCAAAGAUAGCCAA [Omei KL Tryp A SS A v9]”, the “apparent KD of K4 kissing-loop reporter” value (input ligand: FMN 200 uM) is 303 nM; the “apparent KD of K4 kissing-loop reporter” value (input ligand: arginine 13.2 mM) came out at 87.3 nM; the “apparent KD of K4 kissing-loop reporter” value (input ligand: none) was found to be 153 nM; the “apparent KD of K4 kissing-loop reporter” value under setting [1] came to 141 nM; the “apparent KD of K4 kissing-loop reporter” value under setting [2] came out at 164 nM.

In the case of “UUGUUUGGUUGAGAGGUUGGGCGAGAUGAUACCAGUAGAGAAGAGUACCCUUGGCAGCAUAGGAGAGAUAUAGUGAUGUUGUAUG [SSTheophA.S]”, the “apparent KD of K4 kissing-loop reporter” value stood at 258 nM (input ligand: FMN 200 uM); 187 nM (input ligand: arginine 13.2 mM); 320 nM (input ligand: none); 498 nM under setting [1]; 299 nM under setting [2].

As for “AACUCUCAGGCACCUGAGUGAUGUUCAGGCCGAGGACCGGUACGGCCGCCACUCGGGCCUGAGAGAGGUUAUCAAAGAUAGCCAA [Omei KL Tryp A SS A v2]”, the “apparent KD of K4 kissing-loop reporter” value by setting is: (input ligand: FMN 200 uM) 561 nM; (input ligand: arginine 13.2 mM) 366 nM; (input ligand: none) 528 nM; under setting [1], 277 nM; under setting [2], 449 nM.

“AUUUUGGUUUAGAGUGAUGUUCCUUGUAUUCGAGGACCGGUACGGCCGCCACUCGGGUAGAAAAGAAAAGAAAUGUUUGAUUUUU [BDazzled - #9 SS Tryptophan A]”: the “apparent KD of K4 kissing-loop reporter” value was 282 nM (input ligand: FMN 200 uM); 102 nM (input ligand: arginine 13.2 mM); 210 nM (input ligand: none); 222 nM under setting [1]; 290 nM under setting [2].

For the sequence “UGGAUGUAGUGAUGUUAUAUAGAGAGUGAUACCAGUUUAGAGAAGAACCCUUGGCAGCAUAGAAGAGUAUCAUUGGAGAAGAAUG [ExTheophyl.Ar]”, the “apparent KD of K4 kissing-loop reporter” value by setting is: (input ligand: FMN 200 uM) 308 nM; (input ligand: arginine 13.2 mM) 347 nM; (input ligand: none) 320 nM; under setting [1], 334 nM; under setting [2], 244 nM.

“CGAGAAAGAGCGACUGGCGAUCUGUCUGAAGGAGCGGGUGCUAGCCCAGGUAGGUCGCAGACCUUGACGCCAGUGAUGUUGGCGG [Ritiatso]”: the “apparent KD of K4 kissing-loop reporter” value (input ligand: FMN 200 uM) was determined as 220 nM; the “apparent KD of K4 kissing-loop reporter” value (input ligand: arginine 13.2 mM) stood at 180 nM; the “apparent KD of K4 kissing-loop reporter” value (input ligand: none) came out at 208 nM; the “apparent KD of K4 kissing-loop reporter” value under setting [1] was found to be 252 nM; the “apparent KD of K4 kissing-loop reporter” value under setting [2] is 177 nM.

For “UGACUACAAAAGGAAUAAUCCUAGUGAUGUUAGGAUAUGCUGAUAAGCAGAAGGAACGGAGAUCGAAAGAUCUCAUAUGUAGUCU [whbob_Ex_FMNA__2th192]”, the “apparent KD of K4 kissing-loop reporter” value came out at 141 nM (input ligand: FMN 200 uM); 87.4 nM (input ligand: arginine 13.2 mM); 82.8 nM (input ligand: none); 98.5 nM under setting [1]; 87.4 nM under setting [2].

“UGCAUCAGUGCCUUUGAUCUAUUCCUGGAUACCAGAUCCUACUUGAUCCCUUGGCAGCCAUACGGGAGUGAUGUUCCAUGUAUCC [theeternabot_exclusion_KL_Theo_A_43]”: the “apparent KD of K4 kissing-loop reporter” value stood at 210 nM (input ligand: FMN 200 uM); 199 nM (input ligand: arginine 13.2 mM); 209 nM (input ligand: none); 285 nM under setting [1]; 167 nM under setting [2].

For the sequence “UGUCAUUGGUCGGCCGCCACUUCAUAAAGAGUGAUGUUCUAAAAGACGGAUCGAAAGAUCUGUCGAAGGACCGGGAUCGAUGACU [FiskerMod 11 - Jieux - Same State - Tryptophan B]”, the “apparent KD of K4 kissing-loop reporter” value by setting is: (input ligand: FMN 200 uM) 1200 nM; (input ligand: arginine 13.2 mM) 559 nM; (input ligand: none) 998 nM; under setting [1], 569 nM; under setting [2], 275 nM.

“GCGUGCCAUGCAGGAUAUAGUUGUUCGAGUGAUGUUCGAGCCUUGCUAAGUUCGGAGCAUCAGCUUCUAGAAGGGCAUGGCACGC”: the “apparent KD of K4 kissing-loop reporter” value reads like this: (input ligand: FMN 200 uM) 156 nM; (input ligand: arginine 13.2 mM) 205 nM; (input ligand: none) 618 nM; under setting [1], 241 nM; under setting [2], 347 nM.
